Assay results taken from article PMC4109716.
Residue numbers refer to the chain shown, from its start. Like-named read-outs stand apart in the source and are kept apart here.

Key:
Test in all cases: smFRET
POT1;TPP1N [1] = target: T1, POT1;TPP1N (Homo sapiens;Homo sapiens?, UniProt Q9NUX5;Q96AP0 1-634;3-248, |)
POT1 [2] = target: T2, POT1 (Homo sapiens, UniProt Q9NUX5 1-634)
T2 sequence: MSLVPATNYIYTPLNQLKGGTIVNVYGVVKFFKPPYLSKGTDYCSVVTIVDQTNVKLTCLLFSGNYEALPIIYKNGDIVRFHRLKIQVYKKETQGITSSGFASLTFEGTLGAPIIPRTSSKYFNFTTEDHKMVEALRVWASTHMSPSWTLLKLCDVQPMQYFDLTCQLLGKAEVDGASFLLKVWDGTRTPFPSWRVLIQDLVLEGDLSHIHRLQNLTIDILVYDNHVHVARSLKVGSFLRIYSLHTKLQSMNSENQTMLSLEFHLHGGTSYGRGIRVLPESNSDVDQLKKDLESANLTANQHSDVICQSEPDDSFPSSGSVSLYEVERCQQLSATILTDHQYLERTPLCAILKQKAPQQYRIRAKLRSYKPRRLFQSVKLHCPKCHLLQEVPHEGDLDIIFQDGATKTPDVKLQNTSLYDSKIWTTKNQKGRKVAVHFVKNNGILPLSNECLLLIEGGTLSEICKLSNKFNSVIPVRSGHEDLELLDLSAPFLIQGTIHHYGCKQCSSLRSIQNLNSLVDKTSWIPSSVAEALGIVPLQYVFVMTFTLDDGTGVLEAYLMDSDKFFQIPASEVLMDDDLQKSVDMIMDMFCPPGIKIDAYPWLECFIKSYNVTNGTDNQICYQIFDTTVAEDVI

POT1 [3] = target: T2, POT1; remark: listed apart in the source
POT1 [4] = target: T2, POT1; remark: listed apart in the source
POT1;TPP1N-Alexa 647 [5] = target: T3, POT1;TPP1N-Alexa 647 (Homo sapiens;Homo sapiens?, UniProt Q9NUX5;Q96AP0 1-634;3-248, |)
T3 sequence (Q96AP0 3-248, one chain of several): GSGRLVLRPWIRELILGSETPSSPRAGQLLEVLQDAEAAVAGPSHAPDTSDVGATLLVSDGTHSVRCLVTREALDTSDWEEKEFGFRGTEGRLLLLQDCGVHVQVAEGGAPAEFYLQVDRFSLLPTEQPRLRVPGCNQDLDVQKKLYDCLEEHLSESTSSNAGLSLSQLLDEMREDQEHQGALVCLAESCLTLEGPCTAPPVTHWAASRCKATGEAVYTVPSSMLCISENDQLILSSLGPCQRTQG

POT1;TPP1N [6] = target: T1, POT1;TPP1N; remark: listed apart in the source
POT1;TPP1N-Alexa 647 [7] = target: T3, POT1;TPP1N-Alexa 647; remark: listed apart in the source
POT1 [8] = target: T2, POT1; remark: listed apart in the source
POT1 [9] = target: T2, POT1; remark: listed apart in the source
POT1 [10] = target: T2, POT1; remark: listed apart in the source
POT1;TPP1N-Alexa 647 [11] = target: T3, POT1;TPP1N-Alexa 647; remark: listed apart in the source

T1 sequence (Q96AP0 3-248, one chain of several): as above

B1: G4 (24 nt FRET) (mixed)
DNA 1: TGGCGACGGCAGCGAGGCTTAGGGTTAGGGTTAGGGTTAGGG
DNA 2: GCCTCGCTGCCGTCGCCA
- binding result (POT1;TPP1N [1]): binds
- binding result (POT1 [2]): binds

B2: G4 (6 nt Cy3) (mixed)
DNA 1: B1 DNA 1
DNA 2: GCCTCGCTGCCGTCGCCA
modifications: internal Cy3 in strand 1 after nt 24
- binding result (POT1 [3]): binds

B3: G2-mut2 (FRET with Cy5 stem) (mixed)
DNA 1: B1 DNA 1 with A33T, G36C, A39T, G42C
DNA 2: GCCTCGCTGCCGTCGCCA
- binding result (POT1 [4]): binds

B4: G4 (3'Cy3, unlabelled stem strand) (mixed)
DNA 1: B1 DNA 1
DNA 2: GCCTCGCTGCCGTCGCCA
- binding result (POT1;TPP1N-Alexa 647 [5]): binds

B5: G4 (18 nt Cy3) (mixed)
DNA 1: B1 DNA 1
DNA 2: GCCTCGCTGCCGTCGCCA
modifications: internal Cy3 in strand 1 after nt 36
- binding result (POT1;TPP1N [6]): binds
- binding result (POT1 [3]): binds

B6: G2-mut2 (unlabelled stem strand) (mixed)
DNA 1: B1 DNA 1 with A33T, G36C, A39T, G42C
DNA 2: GCCTCGCTGCCGTCGCCA
- binding result (POT1;TPP1N-Alexa 647 [7]): binds

B7: G2 (mixed)
DNA 1: TGGCGACGGCAGCGAGGCTTAGGGTTAGGG
DNA 2: GCCTCGCTGCCGTCGCCA
- binding result (POT1 [8]): binds

B8: G3 (mixed)
DNA 1: TGGCGACGGCAGCGAGGCTTAGGGTTAGGGTTAGGG
DNA 2: GCCTCGCTGCCGTCGCCA
- binding result (POT1 [9]): binds

B9: OB2 mutant (mixed)
DNA 1: TGGCGACGGCAGCGAGGCTTAGGGTTTT
DNA 2: GCCTCGCTGCCGTCGCCA
- binding result (POT1 [10]): binds

B10: G2-mut4 (unlabelled stem strand) (mixed)
DNA 1: TGGCGACGGCAGCGAGGCTTAGGGTTAGGGTTTGGCTTTGGCTTTGGCTTTGGC
DNA 2: GCCTCGCTGCCGTCGCCA
- binding result (POT1;TPP1N-Alexa 647 [11]): binds
